Consider 9 substances from patent US11306156.

The target in assay [1] is D3H44 light chain Q124E_V133W_T180E, N-terminal HA or FLAG tag. The assay can be described thus: LCCA, SPR of light chain tags, L1:L2 DNA 1:3 norm. to 1:1; other light chain m14.
Assay [2] concerns the target D3H44 light chain Q124R_T178R, N-terminal HA or FLAG tag. The assay can be described thus: LCCA, SPR of light chain tags, L1:L2 DNA 1:3 norm. to 1:1; other light chain m25.
The target of assay [3] is D3H44 light chain Q124E_T180E with N-terminal HA or FLAG tag. In words: LCCA (SPR tag readout), L1:L2 DNA 1:3, normalized to 1:1; competing light chain m12.
For assay [4], the target named is D3H44 light chain Q124R_T178R with N-terminal HA or FLAG tag. In words: LCCA (SPR tag readout), L1:L2 DNA 1:3, normalized to 1:1; competing light chain m10.
The target of assay [5] is D3H44 light chain Q124E_T178E with N-terminal HA or FLAG tag. In words: LCCA (SPR tag readout), L1:L2 DNA 1:9, normalized to 1:1; competing light chain m9.
The target in assay [6] is D3H44 light chain Q124E_T178E_T180E with N-terminal HA or FLAG tag. Described as above.
Assay [7] has as its target D3H44 light chain Q124E_T180E with N-terminal HA or FLAG tag. In words: LCCA (SPR tag readout), L1:L2 DNA 1:3, normalized to 1:1; competing light chain m19.
The target is the same in assay [8]. In words: LCCA (SPR tag readout), L1:L2 DNA 1:3, normalized to 1:1; competing light chain m14.
The target of assay [9] is D3H44 light chain Q124R_Q160K_T178R with N-terminal HA or FLAG tag. In words: LCCA (SPR tag readout), L1:L2 DNA 1:3, normalized to 1:1; competing light chain m13.
For assay [10], the target named is D3H44 light chain Q124K_T178R with N-terminal HA or FLAG tag. The assay is described as above.
Assay [11] concerns the target D3H44 light chain Q124R_T178R with N-terminal HA or FLAG tag. The assay is described as above.
The target of assay [12] is D3H44 light chain T178R with N-terminal HA or FLAG tag. Described as above.
Assay [13] addresses D3H44 light chain Q124R_T178R with N-terminal HA or FLAG tag. The assay can be described thus: LCCA (SPR tag readout), L1:L2 DNA 1:3, normalized to 1:1; competing light chain m11.
Assay [14] shares this target. The assay can be described thus: LCCA (SPR tag readout), L1:L2 DNA 1:9, normalized to 1:1; competing light chain m10.
Assay [15] addresses D3H44 light chain Q124E_T180E with N-terminal HA or FLAG tag. In words: LCCA (SPR tag readout), L1:L2 DNA 1:3, normalized to 1:1; competing light chain m9.
Assay [16] has as its target D3H44 light chain Q124E_T178E with N-terminal HA or FLAG tag. The description is as above.
Assay [17] addresses D3H44 light chain Q124E_T178E_T180E with N-terminal HA or FLAG tag. The description is as above.
Assay [18] addresses D3H44 light chain Q124R_T178R with N-terminal HA or FLAG tag. The assay can be described thus: LCCA (SPR tag readout), L1:L2 DNA 1:9, normalized to 1:1; competing light chain m11.
The target of assay [19] is D3H44 light chain Q124E_S176L_T180E, N-terminal HA or FLAG tag. The assay can be described thus: LCCA, SPR of light chain tags, L1:L2 DNA 1:3 norm. to 1:1; other light chain m14.
In assay [20] the target is D3H44 light chain Q124R_T178R, N-terminal HA or FLAG tag. In words: LCCA, SPR of light chain tags, L1:L2 DNA 1:3 norm. to 1:1; other light chain m16.
Assay [21] concerns the target D3H44 light chain Q124R_Q160K_T178R, N-terminal HA or FLAG tag. In words: LCCA, SPR of light chain tags, L1:L2 DNA 1:3 norm. to 1:1; other light chain m21.
Assay [22] has as its target D3H44 light chain Q124E_T178E_T180E, N-terminal HA or FLAG tag. In words: LCCA, SPR of light chain tags, L1:L2 DNA 1:9 norm. to 1:1; other light chain m17.
The target is the same in assay [23]. In words: LCCA, SPR of light chain tags, L1:L2 DNA 1:3 norm. to 1:1; other light chain m17.
The target of assay [24] is D3H44 light chain Q124R_Q160K_T178R, N-terminal HA or FLAG tag. The assay can be described thus: LCCA, SPR of light chain tags, L1:L2 DNA 1:9 norm. to 1:1; other light chain m21.
The target in assay [25] is D3H44 light chain Q124E_Q160E_T180E, N-terminal HA or FLAG tag. The assay can be described thus: LCCA, L1:L2 DNA 1:9, SPR of light chain tags; competing light chain m16.
Assay [26] concerns the target D3H44 light chain Q124R_T178R, N-terminal HA or FLAG tag. In words: LCCA, L1:L2 DNA 1:9, SPR of light chain tags; competing light chain m11.
The target in assay [27] is D3H44 light chain Q124R_T178K, N-terminal HA or FLAG tag. Described as above.
The target of assay [28] is D3H44 light chain Q124E_T180E, N-terminal HA or FLAG tag. In words: LCCA, L1:L2 DNA 1:3, SPR of light chain tags; competing light chain m10.
Assay [29] has the same target. The assay can be described thus: LCCA, L1:L2 DNA 1:3, SPR of light chain tags; competing light chain m14.
Assay [30] addresses D3H44 light chain Q124E_Q160E_T180E, N-terminal HA or FLAG tag. In words: LCCA, L1:L2 DNA 1:9, SPR of light chain tags; competing light chain m12.
Assay [31] addresses D3H44 light chain Q124R_Q160K_T178R, N-terminal HA or FLAG tag. The assay can be described thus: LCCA, L1:L2 DNA 1:3, SPR of light chain tags; competing light chain m13.
The target in assay [32] is D3H44 light chain T178R, N-terminal HA or FLAG tag. The assay is described as above.
Assay [33] concerns the target D3H44 light chain Q124R_T178R, N-terminal HA or FLAG tag. The assay can be described thus: LCCA, L1:L2 DNA 1:3, SPR of light chain tags; competing light chain m11.
In assay [34] the target is D3H44 light chain Q124R_T178K, N-terminal HA or FLAG tag. The description is as above.
For assay [35], the target named is D3H44 light chain Q124E_Q160E_T180E, N-terminal HA or FLAG tag. In words: LCCA, L1:L2 DNA 1:3, SPR of light chain tags; competing light chain m12.
Assay [36] has the same target. The assay can be described thus: LCCA, L1:L2 DNA 1:3, SPR of light chain tags; competing light chain m16.
Assay [37] has as its target tissue factor (TF) antigen (UniProt P13726). The assay can be described thus: SPR, Fab captured on anti-penta-His surface, TF as analyte, 1:1 fit; estimated value, from a Fab that differs only in the L chain tag.
Assay [38] shares this target. In words: SPR, Fab captured on anti-penta-His surface, TF as analyte, 1:1 fit; estimated value, from a Fab that differs only in the L chain tag; against wild-type D3H44 Fab.
The target of assay [39] is D3H44 Fab heavy chain L143E_K145T_Q179E, ABD2-His6 tagged. In words: LCCA, SPR of light chain tags; L1:L2 DNA 1:3 normalized to 1:1; competing light chain m16.
For assay [40], the target named is D3H44 Fab heavy chain S186K, ABD2-His6 tagged. The assay is described as above.
The target in assay [41] is D3H44 Fab heavy chain L143E_K145T_Q179E, ABD2-His6 tagged. In words: LCCA, SPR of light chain tags; L1:L2 DNA 1:9 normalized to 1:1; competing light chain m16.
Assay [42] concerns the target D3H44 Fab heavy chain S186K, ABD2-His6 tagged. The description is as above.
In assay [43] the target is D3H44 Fab heavy chain Q179R, ABD2-His6 tagged. In words: LCCA, SPR of light chain tags; L1:L2 DNA 1:3 normalized to 1:1; competing light chain m16.
Assay [44] has the same target. The assay can be described thus: LCCA, SPR of light chain tags; L1:L2 DNA 1:9 normalized to 1:1; competing light chain m16.
Assay [45] addresses tissue factor (TF) antigen (UniProt P13726). The assay can be described thus: SPR; log change of median KD against wild-type D3H44 Fab; batch C (+).
Assay [46] has the same target. The assay can be described thus: SPR, Fab captured by anti-penta-His, TF injected, 1:1 fit; batch C (+). A general note: Surface plasmon resonance follows binding to a sensor surface in real time, without labels.

As for “D3H44 Fab heavy chain L124A_Q179K, ABD2-His6 tagged”, in [1], the H1L1:H1L2 normalized median ratio worked out at 95% and the H1L1:H1L2 normalized median scalar value ln(r1/f1) turned out to be 2.9. Moreover, the H1L1:H1L2 normalized median ratio in [2] was determined as 5%.
The matching figures for “D3H44 Fab heavy chain L124A_S186K, ABD2-His6 tagged”: 95%, 2.98 and 5%.
Take “D3H44 Fab heavy chain S186R with C-terminal ABD2-His6 tag”: the H2L2:H2L1 normalized median ratio in assay [3] was 97%; in [4], 7%; in assay [5], 82%; in assay [6], 82%; in assay [7] it was 96%; in [8], 98%. The H2L2:H2L1 normalized median ratio is 2% in assay [9]; 3% in assay [10]; 4% in assay [11]; 4% in assay [12]; 4% in assay [13]; 18% in assay [14]. The H2L2:H2L1 normalized median ratio in assay [15] worked out at 96%; in assay [16] it was 96%; in assay [17], 93%; in assay [18], 18%.
Regarding “D3H44 Fab heavy chain S186R, ABD2-His6 tagged”, the H2L2:H2L1 normalized median ratio in [19] amounted to 93%; in [20] it was 7%; in assay [21], 6%; in [22], 87%; in assay [23], 94%; in [24], 13%.
With “D3H44 Fab heavy chain S186R, C-terminal ABD2-His6 tag”, the H2L2:H2L1 normalized median ratio in [25] was 89 share of 100; in assay [26], 14 share of 100; in assay [27] it was 11 share of 100; in [28], 96 share of 100; in assay [29], 98 share of 100; in [30] it was 86 share of 100. Also, the H2L2:H2L1 normalized median ratio in assay [31] was 2 share of 100; in assay [32], 4 share of 100; in [33], 19 share of 100; in [34], 17 share of 100; in assay [35], 81 share of 100; in [36] it was 83 share of 100.
Regarding “D3H44 H1L1 Fab heterodimer of LCCA Set # 9707 (H1 L143E_K145T_S188L; L1 Q124R_Q160K_T178R)”, the Kd in [37] is 0.24 nM. For the same substance, in assay [38], the change in median KD compared to wild type, -(log(KD design)-log(KD wt)) is -0.19.
For the substance “D3H44 light chain Q124E_Q160E_T180E, HA or FLAG tagged”, the H1L1:H1L2 normalized median ratio in [39] was determined as 9%; in [41], 22%. Besides, the H2L2:H2L1 normalized median ratio in assay [40] and in assay [42] was 94% throughout.
With “D3H44 light chain Q124E_T178E_T180E, HA or FLAG tagged”, the H2L2:H2L1 normalized median ratio stood at 94% in assay [43], 95% in [40], 90% in assay [44] and 89% in assay [42]. For the same substance, the H1L1:H1L2 normalized median ratio in assay [39] and in assay [41] was 8% throughout.
Substance “H1L1 Fab heterodimer of LCCA sets 9898, 9893, 9891 and 9896 (D3H44 Fab, H1 S186R, L1 Q124E_T180E)” registered a Change in median values of KD of h1l1 Fab heterodimer compared to wild type (-(log(KD design)-log(KD wt))) in assay [45] of 0.36 log units. For the same substance, the Kd in assay [46] is 0.07 nM.

One may read the Kd as a measure of binding affinity in units of concentration.
